Laboratory results: PMC3659600

Substrate: O=[N+]([O-])c1ccc(O[C@@H]2O[C@H](CO)[C@@H](O)[C@H](O)[C@H]2O)cc1
Assay: purified protein
Conditions: pH 6.0 sodium phosphate 50 mM, 37 °C, 0.1-5 mM substrate

B1: BglF3 (Flavobacterium johnsoniae UW101) (protein)
chain: KNKMIYLSAALVFAFFTSCKNETQTSASNSSQTEEYVGKEISTDHDAEIDKLISQMTLEEKIGMLHGNSMFANAGVKRLGIPELKMADGPLGVREEISRDNWAPAGWTNDFATYYPAGGALAATWNAEMAHTFGTSLGEELRARDKDMLLSPAINMVRTPLGGRTYEYMSEDPFLNKKIAVPLVVGLQEKDVMACVKHYAANNQETNRDFVDVQIDERTLREIYLPAFEATVKEAKAYSIMGAYNKFRGEYLCENDYMLNKILRDEWGFKGVVVSDWAAVHSTAKSLKNGLDIEMGTPKPFNEFFLADKLIAAVKSGEVSEKEIDLHVKRILRVLFQVKAMGGGERAKGSIATEAHYQDAYKIAAEAIILLKNENNALPLKLDGVKSIAVIGNNATKKNALGGFGAGVKTKREVTPLEGLKNRLPSSVKINYAEGYLEKYEEKNKGNLGNITSTGPVTIDKLDPAKVQEAVEAAKKSDVAIIFAGSNRDYETEASDRRDLHLPFGQEELIKKVIEANPKTIVVMIAGAPFDLNEVSQKSSALVWSWFNGSEGGNALADVILGKVNPSGKLPWTMPKQLKDSPAHATNSFPGDKAVNYAEGILIGYRWFDTKNVAPLYPFGYGLSYTTFALDNAKTDKDSYAQNDVIEVTVDVKNTGKVDGKEVVQLYTSKSDSKITRAAQELKGFKKADVKAGGSEKITIKVPVKELAYYDVAAKKWTVEPGKYTIKLGTSSRDIKKEINFTIK
Q: For B1, which Km is on record?
A: 910 ± 20 µM
